According to patent publication US20240272170A1 (QUANTUM SI, published 2024):
Where a chain is given by its changes, count along the chain named. Numbers in names are those of the source. No end group written: not given here. *: point of attachment. FITC = O=C1OC2(c3ccc(O)cc3Oc3cc(O)ccc32)c2ccc(NC(=S)*)cc21

What was measured:
[1] = target: T1, labeled peptide X…-FITC with N-terminal valine (FITC on the C-terminal Lys); assay: fluorescence polarization
T1 construct: also called VA peptide; valine peptide

[2] = target: T2, RA peptide (XAKLDEESILKQK-FITC, X = R); assay: fluorescence polarization titration, 20 C
T2 construct: also called peptide with N-terminal arginine
T2 peptide: RAKLDEESILKQK(FITC)
Procedure: (§1) Binding affinity was measured by polarization using a labeled peptide. The polarization response and total intensity measurements were carried out at 20° C. on a microplate fluorometer with 480 nm excitation and 530 nm emission. […] Multiple analyses were performed at increasing recognizer concentration at a fixed concentration of a target peptide to obtain a titration curve. An equilibrium polarization response at each concentration was plotted and fit to calculate the KD.
(§2) Fluorescence polarization assays were performed with all candidates, and single point binding responses were measured at a fixed concentration of the binders (FIG. 13A). […] We carried out multiple polarization binding titration analysis at increasing concentration of binder protein, and the Kds were determined from the titration curves (FIG. 13B).

[3] = target: T3, target peptide Arg-Ala-Lys-Leu (RAKL); assay: purified protein:peptide complex, X-ray crystallography
T3 peptide: RAKL

[4] = target: T2, RA peptide (XAKLDEESILKQK-FITC, X = R); assay: fluorescence polarization titration, PS1122 0-5000 nM
Procedure: as §1, §2

[5] = target: T4, RA peptide (Octet assay of PS621 variants); assay: Octet (BLI), 30 C
T4 construct: X… with X = R
Source text: (§3) Peptides of the sequence RXKLDEESILKQK (SEQ ID NO: 1076) were also used to evaluate the penultimate residue effect.

[6] = target: T5, RL peptide (Octet assay of PS621 variants); assay: Octet (BLI), 30 C
T5 construct: RXKLDEESILKQK with X = L
T5 peptide: RLKLDEESILKQK
Source text: as §3

[7] = target: T6, RE peptide (Octet assay of PS621 variants); assay: Octet (BLI), 30 C
T6 construct: RXKLDEESILKQK with X = E
T6 peptide: REKLDEESILKQK
Source text: as §3

[8] = target: T7, RQ peptide (Octet assay of PS621 variants); assay: Octet (BLI), 30 C
T7 construct: RX… with X = Q
Source text: as §3

[9] = target: T8, RS peptide (Octet assay of PS621 variants); assay: Octet (BLI), 30 C
T8 construct: RXKLDEESILKQK with X = S
T8 peptide: RSKLDEESILKQK
Source text: as §3

[10] = target: T9, RR peptide (Octet assay of PS621 variants); assay: Octet (BLI), 30 C
T9 construct: RX… with X = R
Source text: as §3

[11] = target: T10, RF peptide (Octet assay of PS621 variants); assay: Octet (BLI), 30 C
T10 construct: RX… with X = F
Source text: as §3

[12] = target: T11, HA peptide (Octet assay of PS621 variants); assay: Octet (BLI), 30 C
T11 construct: XAKLDEESILKQK with X = H
T11 peptide: HAKLDEESILKQK

[13] = target: T12, KA peptide (Octet assay of PS621 variants); assay: Octet (BLI), 30 C
T12 construct: XAKLDEESILKQK with X = K
T12 peptide: KAKLDEESILKQK

[14] = target: RA Peptide (stopped-flow); assay: stopped-flow rapid kinetics
[15] = target: RL Peptide (stopped-flow); assay: stopped-flow rapid kinetics
[16] = target: T13, HL Peptide (stopped-flow); assay: stopped-flow rapid kinetics
T13 construct: the text around it speaks of HA peptide

B1: PS824 (designed binder)
chain: MPTAASATESAFEDTPAPARPEVDGRTKPKRQPRYHVVLWDDDDHTYQYVVVMLRSLFGHPPERGYRLAKEMDTQGRVIVLTTTREHAELKRDQIHAFGYDRLLARSKGSMKASIEAEE
notes: PS557 with I12F, N41D, Q55R, V72M
fold improvement of binding against the wild-type protein PS557 [1]: 5 fold

B2: PS1122 (designed binder)
chain: MHSKFSHAGRICGAKFKVGEPIYRCKECSFDDTCVLCVNCFNPKDHLGHHVYTTICTEFNNGECDCGDKTAWNHTLFCKAEEG
notes: PS621 with T47L, I63E, E70T; on chip labeled with streptavidin-tetraCy3
Kd [2]: 70 nM | binding result [3]: binds | Kd [4]: 70 nM

B3: PS621 (other)
chain: B2 chain with L47T, E63I, T70E
notes: UBR protein (UBR-box) parent of PS1101-PS1122
Octet response [5]: 9.3 | Octet response [6]: 10.2 | Octet response [7]: 5.8 | Octet response [8]: 7.4 | Octet response [9]: 7.1 | Octet response [10]: 6.3 | Octet response [11]: 8.4 | Octet response [12]: 2 | Octet response [13]: 5.2 | koff [14]: 61.8 s⁻¹ | koff [15]: 17.7 s⁻¹

B4: PS1115 (designed binder)
chain: B2 chain with L47R, F59R, E63I, T70E, T75E
notes: Variant of PS621
Octet response [5]: 10.8 | Octet response [6]: 11.8 | Octet response [7]: 7.6 | Octet response [8]: 9.1 | Octet response [9]: 8.5 | Octet response [10]: 6.7 | Octet response [11]: 10 | Octet response [12]: 3 | Octet response [13]: 6.5 | koff [15]: 14.4 s⁻¹ | koff [16]: 40.2 s⁻¹
